Measurements published in the supplement of paper PMC9112550, “Optimization of the antimicrobial peptide Bac7 by deep mutational scanning” (BMC Biology, 2022).

Test system: Escherichia coli TOP10
Experiment: shrunken log2 fold change of peptide-encoding DNA abundance (4.5 h post-induction vs induction); higher = less antimicrobial activity (less host growth inhibition)
Settings: time post-induction: 4.5 h; library: site-saturation at positions 5, 18, 19, 20
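Note: peptides expressed intracellularly from a pBAD plasmid library in pooled LB shake-flask culture, induced with 0.3% L-arabinose, DNA abundance read by NGS, three biological replicates, DESeq2 with apeglm shrinkage.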

Sequence	shrunken log2 fold change
RRIRQRPPRLPRPRPRPEGGPRP	0.161
RRIRSRPPRLPRPRPRPILDPRP	-0.152
RRIRFRPPRLPRPRPRPYVMPRP	-0.651
RRIRCRPPRLPRPRPRPETAPRP	0.308
RRIRHRPPRLPRPRPRPFAPPRP	-0.0777
RRIRPRPPRLPRPRPRPPNSPRP	-0.0717
RRIRTRPPRLPRPRPRPRAEPRP	0.28
RRIRDRPPRLPRPRPRPGCGPRP	0.92
RRIRWRPPRLPRPRPRPTHYPRP	0.0892
RRIRLRPPRLPRPRPRPPREPRP	0.544
RRIRERPPRLPRPRPRPHCNPRP	-1.07
RRIRCRPPRLPRPRPRPHREPRP	-0.0514
RRIRMRPPRLPRPRPRPQHPPRP	-0.0395
RRIRYRPPRLPRPRPRPTKFPRP	-0.316
RRIRHRPPRLPRPRPRPLEGPRP	0.0244
RRIRCRPPRLPRPRPRPYRDPRP	-0.16
RRIRNRPPRLPRPRPRPLNQPRP	-0.225
RRIRDRPPRLPRPRPRPQHCPRP	0.0461
RRIRYRPPRLPRPRPRPFRIPRP	-0.535
RRIRGRPPRLPRPRPRPWWTPRP	-0.124
RRIRRRPPRLPRPRPRPWLWPRP	0.0836
RRIRQRPPRLPRPRPRPRMKPRP	-0.249
RRIRPRPPRLPRPRPRPGETPRP	0.117

Sequence	shrunken log2 fold change
RRIRCRPPRLPRPRPRPLFDPRP	-0.426
RRIRVRPPRLPRPRPRPQTKPRP	0.0433
RRIRPRPPRLPRPRPRPTWQPRP	0.543
RRIRPRPPRLPRPRPRPSWRPRP	-0.0524
RRIRKRPPRLPRPRPRPFNDPRP	-0.135
RRIRMRPPRLPRPRPRPFTNPRP	3.34
RRIRARPPRLPRPRPRPGNFPRP	-0.226
RRIRGRPPRLPRPRPRPLHVPRP	-0.0922
RRIRCRPPRLPRPRPRPFCVPRP	-0.248
RRIRERPPRLPRPRPRPPGTPRP	0.152
RRIRSRPPRLPRPRPRPYHAPRP	-8.39e-05
RRIRYRPPRLPRPRPRPYFMPRP	-1.17
RRIRCRPPRLPRPRPRPWVVPRP	-0.168
RRIRPRPPRLPRPRPRPWTDPRP	0.0245
RRIRLRPPRLPRPRPRPCYVPRP	-1.08
RRIRFRPPRLPRPRPRPVNNPRP	-0.316
RRIRTRPPRLPRPRPRPFFEPRP	0.123
RRIRWRPPRLPRPRPRPECTPRP	0.255
RRIRERPPRLPRPRPRPSQFPRP	-0.474
RRIRLRPPRLPRPRPRPHGCPRP	-0.0225
RRIRARPPRLPRPRPRPRTLPRP	0.226
RRIRYRPPRLPRPRPRPCNYPRP	-0.87
RRIRDRPPRLPRPRPRPFVCPRP	-0.213

Sequence	shrunken log2 fold change
RRIRDRPPRLPRPRPRPWKPPRP	-0.35
RRIRPRPPRLPRPRPRPSSYPRP	-0.197
RRIRIRPPRLPRPRPRPEYNPRP	0.0781
RRIRNRPPRLPRPRPRPQGYPRP	-0.667
RRIRDRPPRLPRPRPRPSMYPRP	-0.105
RRIRLRPPRLPRPRPRPILWPRP	-0.0294
RRIRRRPPRLPRPRPRPKYDPRP	-0.466
RRIRVRPPRLPRPRPRPFHRPRP	-0.0437
RRIRERPPRLPRPRPRPDYRPRP	-0.285
RRIRGRPPRLPRPRPRPQFQPRP	0.0768
RRIRMRPPRLPRPRPRPMPMPRP	0.194
RRIRRRPPRLPRPRPRPWDKPRP	0.0425
RRIRQRPPRLPRPRPRPSNLPRP	-0.11
RRIRSRPPRLPRPRPRPCNEPRP	-1.09
RRIRQRPPRLPRPRPRPYRDPRP	-0.204
RRIRGRPPRLPRPRPRPAEEPRP	1.15
RRIRGRPPRLPRPRPRPWLVPRP	0.422
RRIRMRPPRLPRPRPRPLSYPRP	0.134
RRIRVRPPRLPRPRPRPWERPRP	0.153
RRIRGRPPRLPRPRPRPYHDPRP	-0.0405
RRIRCRPPRLPRPRPRPIRAPRP	-0.0291
RRIRHRPPRLPRPRPRPDKQPRP	0.0409
RRIRFRPPRLPRPRPRPYCWPRP	-0.652

Sequence	shrunken log2 fold change
RRIRFRPPRLPRPRPRPPEVPRP	0.795
RRIRHRPPRLPRPRPRPCYMPRP	-0.494
RRIRGRPPRLPRPRPRPIGHPRP	0.39
RRIRKRPPRLPRPRPRPYCHPRP	-0.469
RRIRPRPPRLPRPRPRPLAEPRP	0.322
RRIRIRPPRLPRPRPRPFFMPRP	-0.538
RRIRCRPPRLPRPRPRPACMPRP	-0.162
RRIRSRPPRLPRPRPRPYETPRP	-0.181
RRIRCRPPRLPRPRPRPMWIPRP	0.085
RRIRYRPPRLPRPRPRPSNYPRP	-1.28
RRIRRRPPRLPRPRPRPLTVPRP	0.0344
RRIRPRPPRLPRPRPRPWKPPRP	-0.149
RRIRQRPPRLPRPRPRPVKQPRP	-0.0153
RRIRERPPRLPRPRPRPGHHPRP	-0.261
RRIRWRPPRLPRPRPRPYIMPRP	-0.116
RRIRARPPRLPRPRPRPEWCPRP	0.72
RRIRNRPPRLPRPRPRPPYDPRP	-0.561
RRIRMRPPRLPRPRPRPCSYPRP	-0.0368
RRIRPRPPRLPRPRPRPGEGPRP	0.349
RRIRHRPPRLPRPRPRPYSCPRP	-0.0837
RRIRRRPPRLPRPRPRPGCMPRP	0.835
RRIRSRPPRLPRPRPRPGQSPRP	0.153
